In the supplement of paper PMC11316812:
± gives the standard deviation of the averaged measurements.

How the values were obtained:
hTERT-HMEC = assay: percentage of EdU-negative (G0-arrested) nuclei per well, 72 h; higher = more G0 arrest; details: reference: sequence is the full UniProt precursor, the tested protein was the secreted form or ectodomain
MCF7 = assay: as above; details: reference: sequence is the full UniProt precursor, the tested protein was the secreted form or ectodomain
[1] = protein concentration 0.0225 µM
[2] = protein concentration 0.0134286 µM
[3] = protein concentration 0.134286 µM
[4] = protein concentration 0.0079375 µM
[5] = protein concentration 0.00885714 µM
[6] = protein concentration 0.0357143 µM
[7] = protein concentration 0.079375 µM
[8] = protein concentration 0.0885714 µM
[9] = protein concentration 0.357143 µM
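Note: secreted proteins added to cultured cells, EdU pulse at the end, nuclei found by Hoechst imaging, EdU status from nuclear versus surrounding ring intensity ratio, PBS as neutral control.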

Substance: MAALSRALGPLRTPAPPLWIGLFLVATGSQQSLAQPLPGNTTEATPRSLRASGSLCGPHAKAPYLCEATHEPAAARIRAQVPDTRWSRVGGQRFYSRVLSPLHRGPSGHTEASAQRSHMGKLKEPQPQDHKPGLGAS [Q6UXU0]
- percentage of EdU-negative (hTERT-HMEC; [1]): 5.38 ± 0.31%
- percentage of EdU-negative (hTERT-HMEC; protein concentration 0.225 µM): 5.92 ± 0.84%
- percentage of EdU-negative (MCF7; [1]): 27.9 ± 0.64%
- percentage of EdU-negative (MCF7; protein concentration 0.225 µM): 23.7 ± 2.8%

Substance: MVPRISAAIFIFELLGSNSEGVTDLRLWLCQPAPRCGEWTYNPLEQCCDDGVILDLNQTRLCGSSCTFWPCFQHCCLESLGSQNQTVVRFKVPGMKPDCKSSPITRICAQEYHPKSPVSRSDLI [Q6B9Z1]
- percentage of EdU-negative (hTERT-HMEC; [1]): 4.65 ± 1.1%
- percentage of EdU-negative (hTERT-HMEC; protein concentration 0.225 µM): 5.64 ± 0.86%
- percentage of EdU-negative (MCF7; [1]): 24.3 ± 0.92%
- percentage of EdU-negative (MCF7; protein concentration 0.225 µM): 24.9 ± 0.9%

Substance: MALRVVRSVRALLCTLRAVPSPAAPCPPRPWQLGVGAVRTLRTGPALLSVRKFTEKHEWVTTENGIGTVGISNFAQEALGDVVYCSLPEVGTKLNKQDEFGALESVKAASELYSPLSGEVTEINEALAENPGLVNKSCYEDGWLIKMTLSNPSELDELMSEEAYEKYIKSIEE
- percentage of EdU-negative (hTERT-HMEC; [1]): 4.5 ± 0.0069%
- percentage of EdU-negative (hTERT-HMEC; protein concentration 0.225 µM): 10.4 ± 2.3%
- percentage of EdU-negative (MCF7; [1]): 25.5 ± 2.2%
- percentage of EdU-negative (MCF7; protein concentration 0.225 µM): 26.3 ± 3.4%

Substance: MVWKWMPLLLLLVCVATMCSAQDRTDLLNVCMDAKHHKTKPGPEDKLHDQCSPWKKNACCTASTSQELHKDTSRLYNFNWDHCGKMEPACKRHFIQDTCLYECSPNLGPWIQQVNQSWRKERFLDVPLCKEDCQRWWEDCHTSHTCKSNWHRGWDWTSGVNKCPAGALCRTFESYFPTPAALCEGLWSHSYKVSNYSRGSGRCIQMWFDSAQGNPNEEVARFYAAAMHVNAGEMLHGTGGLLLSLALMLQLWLLG
- percentage of EdU-negative (hTERT-HMEC; [1]): 4.38 ± 0.49%
- percentage of EdU-negative (hTERT-HMEC; protein concentration 0.225 µM): 5.92 ± 0.29%
- percentage of EdU-negative (MCF7; [1]): 28.59 ± 0.11%
- percentage of EdU-negative (MCF7; protein concentration 0.225 µM): 27.6 ± 2.5%

Substance: P20908
- percentage of EdU-negative (hTERT-HMEC; [2]): 5.6 ± 0.17%
- percentage of EdU-negative (hTERT-HMEC; [3]): 25.8 ± 0.52%
- percentage of EdU-negative (MCF7; [2]): 23.71 ± 0.12%
- percentage of EdU-negative (MCF7; [3]): 28.6 ± 1.4%

Substance: MKPPRPVRTCSKVLVLLSLLAIHQTTTAEKNGIDIYSLTVDSRVSSRFAHTVVTSRVVNRANTVQEATFQMELPKKAFITNFSMIIDGMTYPGIIKEKAEAQAQYSAAVAKGKSAGLVKATGRNMEQFQVSVSVAPNAKITFELVYEELLKRRLGVYELLLKVRPQQLVKHLQMDIHIFEPQGISFLETESTFMTNQLVDALTTWQNKTKAHIRFKPTLSQQQKSPEQQETVLDGNLIIRYDVDRAISGGSIQIENGYFVHYFAPEGLTTMPKNVVFVIDKSGSMSGRKIQQTREALIKILDDLSPRDQFNLIVFSTEATQWRPSLVPASAENVNKARSFAAGIQALGGTNINDAMLMAVQLLDSSNQEERLPEGSVSLIILLTDGDPTVGETNPRSIQNNVREAVSGRYSLFCLGFGFDVSYAFLEKLALDNGGLARRIHEDSDSALQLQDFYQEVANPLLTAVTFEYPSNAVEEVTQNNFRLLFKGSEMVVAGKLQDRGPDVLTATVSGKLPTQNITFQTESSVAEQEAEFQSPKYIFHNFMERLWAYLTIQQLLEQTVSASDADQQALRNQALNLSLAYSFVTPLTSMVVTKPDDQEQSQVAEKPMEGESRNRNVHSGSTFFKYYLQGAKIPKPEASFSPRRGWNRQAGAAGSRMNFRPGVLSSRQLGLPGPPDVPDHAAYHPFRRLAILPASAPPATSNPDPAVSRVMNMKIEETTMTTQTPAPIQAPSAILPLPGQSVERLCVDPRHRQGPVNLLSDPEQGVEVTGQYEREKAGFSWIEVTFKNPLVWVHASPEHVVVTRNRRSSAYKWKETLFSVMPGLKMTMDKTGLLLLSDPDKVTIGLLFWDGRGEGLRLLLRDTDRFSSHVGGTLGQFYQEVLWGSPAASDDGRRTLRVQGNDHSATRERRLDYQEGPPGVEISCWSVEL
- percentage of EdU-negative (hTERT-HMEC; [4]): 4.26 ± 0.31%
- percentage of EdU-negative (hTERT-HMEC; [5]): 5.26 ± 0.59%
- percentage of EdU-negative (hTERT-HMEC; [6]): 4.65 ± 0.14%
- percentage of EdU-negative (hTERT-HMEC; [7]): 6.25 ± 0.86%
- percentage of EdU-negative (hTERT-HMEC; [8]): 5.26 ± 0.17%
- percentage of EdU-negative (hTERT-HMEC; [9]): 5.86 ± 0.71%
- percentage of EdU-negative (MCF7; [4]): 26.1 ± 0.6%
- percentage of EdU-negative (MCF7; [5]): 24.7 ± 1.9%
- percentage of EdU-negative (MCF7; [6]): 25.598 ± 0.0074%
- percentage of EdU-negative (MCF7; [7]): 27.8 ± 0.46%
- percentage of EdU-negative (MCF7; [8]): 22.7 ± 1.4%
- percentage of EdU-negative (MCF7; [9]): 24.7 ± 1.2%

Substance: MLGVLELLLLGAAWLAGPARGQNETEPIVLEGKCLVVCDSNPTSDPTGTALGISVRSGSAKVAFSAIRSTNHEPSEMSNRTMIIYFDQVLVNIGNNFDSERSTFIAPRKGIYSFNFHVVKVYNRQTIQVSLMLNGWPVISAFAGDQDVTREAASNGVLIQMEKGDRAYLKLERGNLMGGWKYSTFSGFLVFPL
- percentage of EdU-negative (hTERT-HMEC; [1]): 5.16 ± 0.97%
- percentage of EdU-negative (hTERT-HMEC; protein concentration 0.225 µM): 5.71 ± 0.24%
- percentage of EdU-negative (MCF7; [1]): 24.7 ± 1.6%
- percentage of EdU-negative (MCF7; protein concentration 0.225 µM): 24.9 ± 2.3%

Substance: MQIITTALVCLLLAGMWPEDVDSKSMQVPFSRCCFSFAEQEIPLRAILCYRNTSSICSNEGLIFKLKRGKEACALDTVGWVQRHRKMLRHCPSKRK
- percentage of EdU-negative (hTERT-HMEC; [1]): 4.79 ± 0.52%
- percentage of EdU-negative (hTERT-HMEC; protein concentration 0.225 µM): 12 ± 1.1%
- percentage of EdU-negative (MCF7; [1]): 24.1 ± 3.4%
- percentage of EdU-negative (MCF7; protein concentration 0.225 µM): 25.4 ± 0.28%
